Results: patent publication US20210085786A1

Biological target: receptor tyrosine kinase-like orphan receptor 1 (ROR1) (human) (UniProt Q01973)
Assay: flow cytometry (FSC against control stain) of PDX tumour cells stained with the control antibody, same ROR1+ gate

Sequence of UniProt Q01973 (Q01973 30-937): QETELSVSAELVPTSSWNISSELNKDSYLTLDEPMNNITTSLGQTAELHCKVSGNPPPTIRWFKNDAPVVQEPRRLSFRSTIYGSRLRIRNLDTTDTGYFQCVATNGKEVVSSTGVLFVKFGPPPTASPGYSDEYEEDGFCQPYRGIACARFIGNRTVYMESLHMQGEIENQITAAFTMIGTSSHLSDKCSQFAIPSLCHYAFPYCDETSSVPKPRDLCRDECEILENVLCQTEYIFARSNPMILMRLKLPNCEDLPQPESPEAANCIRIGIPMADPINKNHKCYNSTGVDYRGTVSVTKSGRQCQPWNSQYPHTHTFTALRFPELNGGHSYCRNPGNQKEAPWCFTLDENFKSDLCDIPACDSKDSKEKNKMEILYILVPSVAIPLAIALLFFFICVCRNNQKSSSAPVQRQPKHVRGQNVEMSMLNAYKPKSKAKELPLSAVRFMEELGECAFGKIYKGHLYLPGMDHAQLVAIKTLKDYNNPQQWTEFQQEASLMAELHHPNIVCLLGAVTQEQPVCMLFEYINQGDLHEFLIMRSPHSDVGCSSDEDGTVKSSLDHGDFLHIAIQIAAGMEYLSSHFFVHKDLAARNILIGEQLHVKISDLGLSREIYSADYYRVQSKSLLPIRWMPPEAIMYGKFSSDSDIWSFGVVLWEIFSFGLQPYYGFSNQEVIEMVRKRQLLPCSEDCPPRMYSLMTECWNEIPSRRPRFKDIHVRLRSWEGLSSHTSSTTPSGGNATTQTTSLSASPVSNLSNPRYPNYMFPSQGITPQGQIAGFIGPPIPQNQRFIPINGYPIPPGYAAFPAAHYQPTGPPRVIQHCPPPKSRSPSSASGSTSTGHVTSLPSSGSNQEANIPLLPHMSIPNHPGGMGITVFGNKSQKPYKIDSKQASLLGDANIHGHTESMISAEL

% of cells in the ROR1+ gate: 0.7%
Substance: Control (antibody)
